The domain aggregation screens of Martell et al. (2025)

Assay: soluble fraction after stress (log2 fold change); higher = more stays soluble; pooled small domains, quantitative proteomics
Details: stress: 50 degC
How it was run: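 Pooled custom libraries of small protein domains were each held under stress at 50°C. The read-out, high-throughput quantitative proteomics, tracked how much of each protein stayed soluble. This is reported as a base-two log fold change used to indicate aggregation propensity. Higher values mean more protein remains in solution.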

Sequence | soluble fraction (log2)
HMETADREILLREIREIINERVDYNKDITDDEMKELVMNTVFERSRQQYMSIQDKQEIIQAIFNSMR | 0.126
HMETAESLLRRLIMLEDPAMQNAMYVLAVMLERGKQLVERAAKPHESGGILRVYEHKKSGDTFVVLDPR | -0.511
HMETDGGDLTPRERDVLSLIGRGLRNAEAASALGLSEHTIAGHIKSVYSKLGISTRAEAALLASRLGL | -0.0786
HMETGGLAQEAERELALLQEQIAHHEALYRKGTPEISDGAFDELFDRYQELADSLGVPADERIDRA | -0.0378
HMETIHEMVNRLSSEGFIKNEDGIWYLRDRRGDGTKWLKNPFFESTGEKDAFALIDHLKVNDELLSKLRK | -0.3
HMETINERVNSIIEREGHTVATFAKKIGVPWTTIKNIVSGRNAPSYDIMVKIINAVDWVDANYLVMG | -1.98
HMETKIKFQIQTLDELNIRKVADWDAKAITTVKKGQILDVVDTVAAKNGSTPMYRLESGLYITASPKYVKK | -0.376
HMETKPTELMLDVHKLRIGMFVYLDLGWMDHPFPLNRFKISTNAQIEQIKGLRLKQVKVMTALSDPASLL | -3.19
HMETKVIVPKVTGMNSKSAINYLSARGLKYKAVPADSGKSFHVVDQYPKSGTKVSPHSTVYLYS | 0.077
HMETLKEVPNLKGQQQEVAKQLLINAGLGVGKINIIEDSTIADGEVVTQSILPNTKVKKDTYVGFTVNKAP | 0.0969
HMETLKLRDSGKEVQSLQELLQRQGLSAPMNGIFDEATKSSVIAFQKANGLDADGIVGYKSWETLFTAG | 0.132
HMETMSGTVKWFNTQKGYGFITGDDGAEYFAHQTQIKMDGFRTLDAGDIVEFDVRSEEKGLAAVNIVP | -0.0597
HMETPDLTQLNPILDEYRGQKGAVIPVLQKAQKIYGFLPPEVLRRIAAGMRVPLSKIYGVATFYSQFY | 0.0579
HMETQAGELQDAIRDAIAALPPRTREVFLMSRERNLRYGEIAEALGISVKAVEANMSRALRQLREKLSPFL | -0.454
HMETVMYLRQIKRPQGIYLAIQESYYDSSKKQSRTRTIESIGYLDNLRKEYEDPIAFFSQKAAAMTSEKKK | -1.51
HMETVQTGTVKVSNSLNVRSGAGTNYSVLGSLSNGAKVEIVGTSGSWYKIKYGSGYGYVSKDYVTVS | -0.0163
HMETVSFNPDIAVIPDYRHVVILGETTKTIANKYDIPVDILKAANPGLGNNVTKGDRLRVPDKTKLQ | 0.155
HMETYHIQMKGDPSKGIVGFSQLDMVIDKIKRLETEKGIAPYELEVLDGDTMEKYSGEEFLTMHE | 0.0939
HMETYSGVERAAILVMYLERTLAKALLDHMNDEEVRRVGMAMASIDRVEGPDIERIVGDFVRELYEVS | -0.793
HMETYTVPEVLGLTPEQAAQLPEVKDIFTLDVKEEGDFSDKPVGTIVRQSPTEGEHRKGDNLVIEVWLSV | -0.0593
HMEVADAAQRKILQALQVQPLTVEQLSQELRTDTGDLLVSLSMMEITGLIRREAGNTFLAVFAPK | -0.448
HMEVEIPSREALLGLVQKHLKPVSFDEFVSHFKLGDERQQVGIKRRLRAMERDGQLVYTKANSYGLPDRM | 0.194
HMEVGVSGTVFNTDSLNVRKGPGTNFDTVTSLKRGSVVEVFEQSAVDGTVWGRIANGWVNMQYVSL | -0.093

Sequence | soluble fraction (log2)
HMEVKEVDYSAFMTMTEENSISKVEIEENQILFKKKGDDQTTYKTARMDDPALITRLHDQGVDFTGQ | 0.0677
HMEVKRANRKERFLEALPYQFSRQDYLNIADKNKIPHKTAEGYITKFVDAGLIHREAHNNYTNPTKA | 0.146
HMEVLPLHQVKLKYAEADTILIALKSAQSMLSPRGQLLADNRSQQIFVYDDEAHTATLIEAIKHLDQPL | -0.0429
HMEVLTEPKVQSIDTHGEKSTFVIESPNPLQPDEIAKLVGADGISVRVDRTWLKSHRDSTWTYSILTVS | -0.00748
HMEVPFRNAAIFKTRSGDYAIRASYDGVDLGIKPIEKSTARTYFQLTDVKDKESFLNMTARNQYESEIAGI | -0.00166
HMEVPNLIGMTDKDLQRTYFQLPIEAAGDGSVVIKQLPEPGEKVKEGSVIRVLLG | 0.171
HMEVPQKTLEILEPWRGRKGFLIPVLQAVQHEFGYVPKEAIETVSREMKMPTAEIYGVVTFYAQFH | -0.493
HMEVSEGEIREKVESVFSSNPRQAYNYKQISKKLNINDKSERQIVWDVLRKLAGSGKIQEVEHGRFRARAE | 0.122
HMEVSKETFPAYVAVDSLPVYKSASTSSSKVTTIDFGREVTVVETRGGWAKIQYGSYKGFAEIEGMSKN | -0.368
HMEVVELTDDEKMILATLHDGPVEIGHIKQVVGLSGKKWDAATKSLRQKGLINVVLENEQKLMVK | 0.422
HMEWGEADFVRLDEALATLRTLSPRQAEVVDLRFFSELSLEETAATLGLSLATVKRDWSVARLYLQRALS | 0.0743
HMEWTVEKQAAATLNAWMRKNSEMTSEKKVAVAAGIGPATVNRIMKAEVSTTIGVLSSLARAFGHEAYEMI | -0.276
HMEYDEVVVVKQIIPKGKNTMVAHLKHLKEHGETGFLKQAVGYLKLHASEIPFSVDAVISEVH | -0.361
HMEYDYKVIDFFKDYYSYLNYQEIEPNILDKQLTTLTEEESAKIAGIMKLDYEDFTRGIEIVTGS | -0.195
HMEYLIENYGSVINQARMKKGMTQEQLSSKTGVSQAYIRSIESQNMKPTDAVARKIEFELGIKLFE | -0.0273
HMEYSKSIKRLREDKNLTVEELAKRLSLDVEEIQKAEDGEDVDQKTLEAIARYFGVQYDSLVEGTAKSK | 0.0998
HMEYTTEELDSLLKLYFQTHESINRNEFEQLTSYTRTTASRRLKTLVQAGKLQNIGLYRFPVYKPTEGNF | -2.49
HMEYYWHQLKGLEVVNTRGESLGRVRRLLETGANDVLVLEGEQERLIPYVPDTIKQVDLAKGLIEVAWDRD | -0.0728
HMFAADIGVGIVDADSLRVRSEPSTGAPIVTSLLRGTQVTVQEKLDGWYRITYNDVSGFVSAEYLIFTADE | -0.241
HMFAGEWKQDASGWWYQNDDGSFTRNGWQNISGKQYYFNENGYMLHDTTTPDGKQVGSDGSLV | 0.0661
HMFAKVEGITGDILDKLQQQRGFLALSDKSSPEAIYDTFGVSKKVFKQAIGTLFKQQKISIEAEGIRLV | -0.709
HMFASSADGVEGLKTNPIFASTKEKSDAGKLLYTRYLAIGIFRMLELAKATDPKALEALVEAGG | 0.0895
HMFDDEELDTFAGRQSDSYDQQEVEQFSDVLHTMRQDEVQAWWRSLTLRGISLPDELKDEVIML | -0.538

Sequence | soluble fraction (log2)
HMFDDLSTNLRDLAHNYIEKYSPSKQQLKVFLLKKYLMKFKGSKTKKEISEIIDKIISNLEENKYLNDEL | 0.0632
HMFDFMVLGQAIKKARESKEMTREQLAEILDVAPRHIQSIENEGQYPSFPLFIRLVTMFNISVDQY | -1.92
HMFDGNIKIVEDAFSVTIVARGTEVKISGDPENVYLASKTVEGLLTLIDKGEAITDQRVHYVIGLVREG | -2.65
HMFDGTLSIYPNPSKGIFNLDLLNVKDGEYTITVDNLLGQEVYSEIRNVINSSSKTLDLSNLTKGV | -0.173
HMFDLKKIYGTILDETKSSLLLSTDDGREVQIIKTDGTEVLASGLGVYVEVAYRDETPDGYPIALTI | -0.193
HMFDTVKIGKRIAELRKKRDMTQFELADRLGISYQAVSNWERGNSMPDIAKLPELAEIFGVTVDEILG | 0.161
HMFEARNTTFSEDGKTITETYGVKRIETEFVSDSTIVQKLYDNDVLTKTKTITFSADGLSIKEDV | 0.0154
HMFEDYNELDEYLETRFIPTYVLLKQRKNANGEIDHFPSIRLQHIMALKLSEAELEHVMNYLKEKNIRVG | -0.325
HMFEKVKLTLTIPSKYSGSTYSALRNRMNKFSKEEWLSNGDLKIEIEVTGGQKTDIYTLINKLTNGEAIIE | -0.141
HMFELDELDLVILKNLANGLSKKQIRVKLKKMDLRPNSESAIDKRVSKLFDEFGAKNSTELVAKLIREGL | -2.55
HMFELTVGTPIRVIREPYFGKLGTVTELPAQLMVVESGTEVRVLKAKIEGEGEVLVPRANVEIIATG | -0.0828
HMFELVKISENIPIRDLAETLKTTPNEIIKELMVFGVLANINQTLNFDLASKVADKLGFEVELL | -0.246
HMFEMPTSLVRTLSAIAIKQPVMQSEIIKLRGAGAYDHIKELIIRELVHRKEEGRSPILTTTKKFQEYFRL | -2.33
HMFERIYVFSRDGDIIELPKGSTVLDFAYHVHTHVGNRAQAARVNKRYVPLTYQLKTGEQVEIIIS | -1.2
HMFEYDEEEYEKLGPNADLTIKSMTDWGQSLVRKGVWSESDFEEFKIMGGTAQGLRALQKVRSYY | -0.451
HMFFAGLSPEAARTLDSLPLHSWSSVEQIARQAGLNIETVRKELGLLELSGIALSRQGRFRRA | -0.549
HMFFFILNKGAKSGGEITHAVLNGSIVSKPAGWDAFHGLVLAKEKLSSEEIQRQMKELGVEMEIVPL | -0.58
HMFGDQMQSYLSRLSQIDVDIIALKYGDNFTYREIGLILEMSEDSVRQRAVRARKKLETMIQKG | -3.1
HMFGEDNLKSKEIKERVTEVAKHADDPVWIEARRKWKDENPDQNVKDYQQAYISGRIHELPWDVSYI | 0.142
HMFGEKEFYQWIGKTAGEKFSGLPAAVIKSLYKYWREYNLSEEDIMGFIRQTELLPKRTPLDVELFFEK | -0.456
HMFGELTPDTAKRFLLTAREQEMASLIAQGLTNKEIAFRLGISEATVRTHIYNLFQKVGVQSRIELLNVLH | -0.289
HMFGNTGETSGTGVAFTRSPVDGENKIFGEFLVNAQGEDVVAGIRTPQPISEMEQAFPEVYSKFESVAEIL | 0.0862
